Reference: patent US20250197491A1 (MACOMICS, published 2025)
Changes are numbered by the printed parent chain.

B1: Antibody 1 (antibody, V domains shown)
VH: QVQLVESGGGLVKPGGSLRLSCAASGFTFSDYYMSWIRQAPGKGLEWVSYISSSGSIKKYADSVKGRFTISRDNAKNSLYLQMNSLRGEDTAVYYCARTNWHFDYWGQGTLVTVSS
VL: EIVLTQSPGTLSLSPGERATLSCRASQSVSSSYLAWYQQKPGQAPRLLIFGASTRATGIPDRFSGSGSGTDFTLTISRLEPEDVAVYYCQQYYSTPFTFGPGTKVDIK
notes: Fully human antibody expressed in CHO; also called Clone 1; Antibody Clone 1
B2: Antibody 3 (antibody, V domains shown)
VH: QVQLVQSGAEVKKPGASVKVSCKASGYTFTSYGISWVRQAPGQGLEWMGWISAYNGNTNYAQKLQGRVTMTTDTSTSTAYMELRSLRSDDTAVYYCARSYSGSHWWFDPWGQGTLVTVSS
VL: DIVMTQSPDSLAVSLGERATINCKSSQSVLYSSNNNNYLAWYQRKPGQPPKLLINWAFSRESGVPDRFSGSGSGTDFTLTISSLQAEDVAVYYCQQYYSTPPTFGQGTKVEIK
notes: Fully human antibody; IgG4; also called Clone 3; Antibody Clone 3
B3: Antibody 4 (antibody, V domains shown)
VH: B2 VH with H104Y
VL: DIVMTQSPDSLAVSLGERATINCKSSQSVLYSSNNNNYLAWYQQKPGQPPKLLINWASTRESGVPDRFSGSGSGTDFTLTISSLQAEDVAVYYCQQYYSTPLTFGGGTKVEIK
notes: Fully human antibody; IgG4; also called Clone 4; Antibody Clone 4
B4: Antibody 5 (antibody, V domains shown)
VH: QVQLVESGGGLVKPGGSLRLSCAASGFTFSDYYMTWIRQAPGKGLEWVSYISISGITRYYADSVKGRFTISRDNAKNSLYLQMNSLRAEDTAVYYCARDQTGYFDYWGQGTLVTVSS
VL: DIVMTQSPATLSVSPGEKTTLSCRASQSFSSNLAWYQQKPGQAPRLLIYGASTRATGIPARFSGSGSGTEFTLTISSLQSEDFAVYYCQQYINWPHTFGQGTKVEIK
notes: Fully human antibody; IgG4; also called Clone 5; Antibody Clone 5

molecular target: T1, Human LILRB1 (D1-D2) fused to mouse IgG2a Fc (human); assay: summary table (ELISA); N = No
T1 construct: also called truncated (D1-D2) version of the LILRB1 ecto-domain
T1 sequence (chain, as listed by the source limits assumed): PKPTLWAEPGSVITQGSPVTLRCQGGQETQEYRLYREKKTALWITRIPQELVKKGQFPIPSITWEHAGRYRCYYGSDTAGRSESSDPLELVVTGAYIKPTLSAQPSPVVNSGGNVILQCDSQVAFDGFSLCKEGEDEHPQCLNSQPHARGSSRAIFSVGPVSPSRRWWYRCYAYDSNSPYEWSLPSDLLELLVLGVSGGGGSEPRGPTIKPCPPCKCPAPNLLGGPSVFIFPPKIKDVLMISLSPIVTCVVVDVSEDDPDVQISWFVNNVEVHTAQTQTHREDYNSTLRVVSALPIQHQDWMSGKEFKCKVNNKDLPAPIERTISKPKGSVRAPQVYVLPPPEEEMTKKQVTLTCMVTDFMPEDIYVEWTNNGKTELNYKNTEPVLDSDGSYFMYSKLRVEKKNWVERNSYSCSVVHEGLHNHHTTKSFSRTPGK

Binder | binding result
B1 | no binding
B2 | no binding
B3 | no binding
B4 | no binding

molecular target: LILRB3 recombinant, full-length ectodomain (LILRB3 24-443) (human, UniProt O75022 24-443); assay: multi-point ELISA, antigen coated, apparent EC50
Procedure: (§1) FIG. 32. Binding of Clones 1-5 to selected LILR family members tested by multiple point ELISA. Recombinant LILRB1, LILRB2, LILRB3, LILRA1, LILRA3, LILRA4, and LILRA6, or irrelevant control protein were coated on the ELISA plates. The plates were then blocked with milk in PBST. Next, the plates were incubated with serial dilutions (12.5 nM to 0.02 nM) of Clones 1-5 (A-E). Bound antibodies were detected using HRP-conjugated anti-human Fc antibodies and the chromogenic substrate.
as §1, with “Binding of” for “FIG. 32. Binding of”, “point ELISA. (FIG. 32) Recombinant LILRB1,” for “point ELISA. Recombinant LILRB1,”, “LILRA3, LILRA4, LILRA6, or” for “LILRA3, LILRA4, and LILRA6, or”, “nM) of Clone 1-5 (A-E).” for “nM) of Clones 1-5 (A-E).”

Binder | EC50 [nM]
B1 | 2
B2 | 1.75
B3 | 1.38
B4 | 0.99

molecular target: LILRB1 recombinant, full-length ectodomain (human, UniProt Q8NHL6 24-461); assay: multi-point ELISA, antigen coated, apparent EC50
Procedure: as §1
as §1, with “Binding of” for “FIG. 32. Binding of”, “point ELISA. (FIG. 32) Recombinant LILRB1,” for “point ELISA. Recombinant LILRB1,”, “LILRA3, LILRA4, LILRA6, or” for “LILRA3, LILRA4, and LILRA6, or”, “nM) of Clone 1-5 (A-E).” for “nM) of Clones 1-5 (A-E).”

Chain of LILRB1 recombinant, full-length ectodomain (Q8NHL6 24-461 limits assumed): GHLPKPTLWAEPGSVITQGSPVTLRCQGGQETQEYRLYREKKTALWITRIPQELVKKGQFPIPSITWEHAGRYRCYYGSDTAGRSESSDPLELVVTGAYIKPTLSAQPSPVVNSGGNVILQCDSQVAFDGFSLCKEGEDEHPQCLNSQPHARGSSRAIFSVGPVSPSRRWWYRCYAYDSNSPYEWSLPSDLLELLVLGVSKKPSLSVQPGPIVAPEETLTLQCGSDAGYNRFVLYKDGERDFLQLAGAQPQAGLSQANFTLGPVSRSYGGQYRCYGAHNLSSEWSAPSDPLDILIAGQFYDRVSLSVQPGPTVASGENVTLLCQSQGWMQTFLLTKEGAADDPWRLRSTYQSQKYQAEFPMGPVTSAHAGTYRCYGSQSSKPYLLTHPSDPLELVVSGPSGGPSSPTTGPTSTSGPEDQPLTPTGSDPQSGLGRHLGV

Binder | EC50 [nM]
B1 | 0.55
B2 | 1.38
B3 | 1.24
B4 | 0.99

molecular target: LILRA6 recombinant, full-length ectodomain (LILRA6 24-447) (human, UniProt Q6PI73 24-447); assay: multi-point ELISA, antigen coated, apparent EC50
Procedure: as §1
as §1, with “Binding of” for “FIG. 32. Binding of”, “point ELISA. (FIG. 32) Recombinant LILRB1,” for “point ELISA. Recombinant LILRB1,”, “LILRA3, LILRA4, LILRA6, or” for “LILRA3, LILRA4, and LILRA6, or”, “nM) of Clone 1-5 (A-E).” for “nM) of Clones 1-5 (A-E).”

Chain of LILRA6 recombinant, full-length ectodomain (LILRA6 24-447) (Q6PI73 24-447): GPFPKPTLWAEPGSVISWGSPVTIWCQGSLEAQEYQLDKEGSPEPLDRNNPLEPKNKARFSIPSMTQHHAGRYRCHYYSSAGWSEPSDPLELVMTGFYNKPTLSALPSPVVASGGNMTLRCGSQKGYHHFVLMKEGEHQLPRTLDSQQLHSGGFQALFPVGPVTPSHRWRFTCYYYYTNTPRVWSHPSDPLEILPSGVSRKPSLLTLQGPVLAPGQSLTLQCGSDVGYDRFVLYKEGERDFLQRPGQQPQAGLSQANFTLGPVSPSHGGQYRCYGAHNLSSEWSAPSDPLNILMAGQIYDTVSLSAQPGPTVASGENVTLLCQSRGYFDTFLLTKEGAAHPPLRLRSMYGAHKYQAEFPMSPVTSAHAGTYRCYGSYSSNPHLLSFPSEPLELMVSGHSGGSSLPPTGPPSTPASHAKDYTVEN

Binder | EC50 [nM]
B1 | 1.81
B2 | 1.69
B3 | 2.2
B4 | 0.97

molecular target: LILRA4 recombinant, full-length ectodomain (LILRA4 24-446) (human, UniProt P59901 24-446); assay: multi-point ELISA, antigen coated, apparent EC50
Procedure: as §1
as §1, with “Binding of” for “FIG. 32. Binding of”, “point ELISA. (FIG. 32) Recombinant LILRB1,” for “point ELISA. Recombinant LILRB1,”, “LILRA3, LILRA4, LILRA6, or” for “LILRA3, LILRA4, and LILRA6, or”, “nM) of Clone 1-5 (A-E).” for “nM) of Clones 1-5 (A-E).”

Chain of LILRA4 recombinant, full-length ectodomain (LILRA4 24-446) (P59901 24-446): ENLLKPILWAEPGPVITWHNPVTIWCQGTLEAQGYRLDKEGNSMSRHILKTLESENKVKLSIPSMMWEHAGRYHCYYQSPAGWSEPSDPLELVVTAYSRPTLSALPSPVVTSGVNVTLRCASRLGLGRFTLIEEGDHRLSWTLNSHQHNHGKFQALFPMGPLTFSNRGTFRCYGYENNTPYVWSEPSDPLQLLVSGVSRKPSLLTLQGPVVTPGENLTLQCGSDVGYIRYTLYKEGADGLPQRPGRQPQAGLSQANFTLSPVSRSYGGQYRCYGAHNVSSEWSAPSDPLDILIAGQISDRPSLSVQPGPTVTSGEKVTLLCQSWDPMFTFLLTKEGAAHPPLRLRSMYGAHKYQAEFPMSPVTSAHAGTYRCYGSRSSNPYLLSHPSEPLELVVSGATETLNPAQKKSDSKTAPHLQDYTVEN

Binder | EC50 [nM]
B1 | 0.81
B2 | 1.15
B3 | 1.38
B4 | 0.84

molecular target: LILRB2 recombinant, full-length ectodomain (LILRB2 22-458) (human, UniProt Q8N423 22-458); assay: multi-point ELISA, antigen coated, apparent EC50
Procedure: as §1
as §1, with “Binding of” for “FIG. 32. Binding of”, “point ELISA. (FIG. 32) Recombinant LILRB1,” for “point ELISA. Recombinant LILRB1,”, “LILRA3, LILRA4, LILRA6, or” for “LILRA3, LILRA4, and LILRA6, or”, “nM) of Clone 1-5 (A-E).” for “nM) of Clones 1-5 (A-E).”

Binder | EC50 [nM]
B1 | 0.73
B2 | 1.28
B3 | 1.39
B4 | 1.04

molecular target: T2, Human full length LILRA3 (human, UniProt Q8N6C8 24-439); assay: multi-point ELISA, antigen coated, apparent EC50
T2 construct: Commercial recombinant protein; also the parent of the LILRA3 peptide microarrays
Procedure: as §1
as §1, with “Binding of” for “FIG. 32. Binding of”, “point ELISA. (FIG. 32) Recombinant LILRB1,” for “point ELISA. Recombinant LILRB1,”, “LILRA3, LILRA4, LILRA6, or” for “LILRA3, LILRA4, and LILRA6, or”, “nM) of Clone 1-5 (A-E).” for “nM) of Clones 1-5 (A-E).”

T2 sequence (Q8N6C8 24-439 A105V limits assumed): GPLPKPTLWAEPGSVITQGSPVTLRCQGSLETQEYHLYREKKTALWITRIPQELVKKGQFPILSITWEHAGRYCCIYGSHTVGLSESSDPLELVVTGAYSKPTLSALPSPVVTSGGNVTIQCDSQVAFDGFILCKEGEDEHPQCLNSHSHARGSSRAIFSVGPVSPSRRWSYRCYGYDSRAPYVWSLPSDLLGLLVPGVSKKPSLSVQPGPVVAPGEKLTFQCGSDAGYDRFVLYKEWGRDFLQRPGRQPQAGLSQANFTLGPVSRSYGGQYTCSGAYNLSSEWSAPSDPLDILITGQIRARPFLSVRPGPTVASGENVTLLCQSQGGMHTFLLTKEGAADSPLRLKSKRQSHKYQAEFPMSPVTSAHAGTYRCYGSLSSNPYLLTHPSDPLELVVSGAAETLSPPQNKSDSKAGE

Binder | EC50 [nM]
B1 | 0.97
B2 | 1.2
B3 | 1.42
B4 | 1.26

molecular target: T3, Human LILRA1 ectodomain (human, UniProt O75019 17-461); assay: multi-point ELISA, antigen coated, apparent EC50
T3 construct: Recombinant protein from a commercial source
Procedure: as §1
as §1, with “Binding of” for “FIG. 32. Binding of”, “point ELISA. (FIG. 32) Recombinant LILRB1,” for “point ELISA. Recombinant LILRB1,”, “LILRA3, LILRA4, LILRA6, or” for “LILRA3, LILRA4, and LILRA6, or”, “nM) of Clone 1-5 (A-E).” for “nM) of Clones 1-5 (A-E).”

T3 sequence (O75019 17-461): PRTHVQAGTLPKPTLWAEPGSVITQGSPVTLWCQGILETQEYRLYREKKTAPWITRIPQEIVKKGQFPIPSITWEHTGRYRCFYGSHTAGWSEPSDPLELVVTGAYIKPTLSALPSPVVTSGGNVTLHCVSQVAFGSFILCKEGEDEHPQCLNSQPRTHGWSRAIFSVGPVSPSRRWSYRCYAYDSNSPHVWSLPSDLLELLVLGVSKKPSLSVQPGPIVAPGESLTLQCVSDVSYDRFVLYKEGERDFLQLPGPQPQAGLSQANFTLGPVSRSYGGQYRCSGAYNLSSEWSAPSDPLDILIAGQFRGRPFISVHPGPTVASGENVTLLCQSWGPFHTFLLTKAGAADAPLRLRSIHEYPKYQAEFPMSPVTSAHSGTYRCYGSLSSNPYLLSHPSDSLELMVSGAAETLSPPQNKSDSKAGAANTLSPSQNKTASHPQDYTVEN

Binder | EC50 [nM]
B1 | 2.38
B2 | 1.76
B3 | 4.1
B4 | 9.07

molecular target: T4, Human LILRB1(I142T/S155I) ectodomain fused to mIgG2aFc (human); assay: ELISA, antigen coated, 10 nM antibody
T4 construct: The entry already carries the two substitutions
Text: FIG. 3. Mixed LILRB1 and LILRB2 expression in TAMs from melanoma cancer patients. Analysis of LILRB1 and LILRB2 detection in macrophages in pre- and post-anti-PD-1 and/or anti-CTLA-4 therapy treated melanoma patients (n=33) is shown using Smart-seq2 data from Sade-Feldman et al. https://pubmed.ncbi.nlm.nih.gov/30633907/FIG. 4. Binding to domains of human LILRB1. Plates were coated with recombinant full length LILRB1 ectodomain (SEQ ID NO: 41) or a protein comprising domain 1 and 2 of human LILRB1 protein (SEQ ID NO: 42), and then incubated with 10 nM Clones 1-5, Reference Ab 1, and Isotype control. The bound antibodies were detected using HRP-labeled secondary antibodies and the results were plotted on the graph as absorbance measured at 450 nm.
Binding to allelic forms of LILRB1. There are 4 major allelic variants of human LILRB1 protein ectodomain. The variants of LILRB1 were expressed as recombinant proteins comprising a modified LILRB1 ectodomain and mouse IgG2 Fc region (SEQ ID NO: 50 and 51) in suspension CHO cells, and purified by using techniques that were known in the art. These recombinant proteins were then used in the direct enzyme-linked immunosorbent assay (ELISA) to determine the antibodies potential to bind different allelic forms of LILRB1. In short, Maxisorp (Nunc) or similar immune-assay plates were coated with solutions of target proteins in PBS, at 4° C., overnight. Plates were then washed with PBS, blocked with 5% milk in PBS, and washed again. Test antibodies diluted in PBS were then added to the plates and incubated at room temperature for at least 1h. Plates were subsequently washed with PBS/0.05% Tween-20 (PBST) and incubated with a solution of horse radish peroxidase (HRP) labelled secondary antibodies at room temperature for at least 1 h. After washing with PBST and PBS, bound antibodies were detected using the 3,3′,5,5;-tetramethylbenzidine (TMB) chromogenic solution. After 5 to 10 minutes, the reaction was stopped with 1% sulphuric acid and absorbance read at 450 nm.
There are four major allelic variants within the ecto-domain of LILRB1 in human population [Human Molecular Genetics, 2005, Vol. 14, 2469-2480]; namely c.203T>C (L68P), c.277G>A (A93T), c.425T>C (I142T), and c.464G>T (S155I).

T4 sequence (chain, as listed by the source I142T S155I I142T S155I limits assumed): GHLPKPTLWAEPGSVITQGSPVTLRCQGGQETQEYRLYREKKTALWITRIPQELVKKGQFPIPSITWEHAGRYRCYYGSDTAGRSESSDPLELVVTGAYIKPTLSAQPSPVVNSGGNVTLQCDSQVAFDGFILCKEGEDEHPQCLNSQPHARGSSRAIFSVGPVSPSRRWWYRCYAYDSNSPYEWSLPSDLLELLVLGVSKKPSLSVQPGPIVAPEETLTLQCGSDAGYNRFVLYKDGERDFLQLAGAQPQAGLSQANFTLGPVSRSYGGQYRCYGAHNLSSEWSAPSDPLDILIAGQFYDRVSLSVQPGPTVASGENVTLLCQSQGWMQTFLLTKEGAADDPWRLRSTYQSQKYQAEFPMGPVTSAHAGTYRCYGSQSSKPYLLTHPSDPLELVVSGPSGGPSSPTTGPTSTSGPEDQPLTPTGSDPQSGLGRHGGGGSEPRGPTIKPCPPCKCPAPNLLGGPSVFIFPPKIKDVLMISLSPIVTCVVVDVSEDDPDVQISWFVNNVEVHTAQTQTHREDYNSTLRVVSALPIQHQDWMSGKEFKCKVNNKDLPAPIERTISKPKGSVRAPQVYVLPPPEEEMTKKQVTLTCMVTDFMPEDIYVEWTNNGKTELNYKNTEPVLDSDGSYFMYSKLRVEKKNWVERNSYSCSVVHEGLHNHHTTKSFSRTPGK

Binder | binding result
B1 | binds
B2 | binds
B3 | binds
B4 | binds

molecular target: LILRB4 recombinant, full-length ectodomain (LILRB4 17-257) (human, UniProt Q8NHJ6 22-257); assay: summary table (single point ELISA); N = No

Binder | binding result
B1 | no binding (tested: 1 nM)
B2 | no binding (tested: 1 nM)
B3 | no binding (tested: 1 nM)
B4 | no binding (tested: 1 nM)

molecular target: LILRB5 recombinant, full-length ectodomain (LILRB5 18-456) (human, UniProt O75023 24-456); assay: summary table (single point ELISA); N = No
Sequence (O75023 24-456 limits assumed): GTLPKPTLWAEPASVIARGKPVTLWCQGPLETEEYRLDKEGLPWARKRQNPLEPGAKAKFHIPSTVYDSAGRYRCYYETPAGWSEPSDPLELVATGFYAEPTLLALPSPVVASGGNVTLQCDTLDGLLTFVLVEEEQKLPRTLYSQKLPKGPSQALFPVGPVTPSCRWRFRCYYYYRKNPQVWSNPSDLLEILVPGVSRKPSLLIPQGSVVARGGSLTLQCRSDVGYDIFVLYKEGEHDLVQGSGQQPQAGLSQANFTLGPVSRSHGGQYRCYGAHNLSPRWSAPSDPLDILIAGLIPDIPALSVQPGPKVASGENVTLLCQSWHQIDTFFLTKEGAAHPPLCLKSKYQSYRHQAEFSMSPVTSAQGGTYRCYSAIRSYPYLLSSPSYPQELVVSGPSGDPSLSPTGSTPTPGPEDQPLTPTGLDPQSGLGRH

Binder | binding result
B1 | no binding (tested: 1 nM)
B2 | no binding (tested: 1 nM)
B3 | no binding (tested: 1 nM)
B4 | no binding (tested: 1 nM)

molecular target: T5, Human LILRA2 ectodomain (human, UniProt Q8N149 24-449); assay: summary table (single point ELISA); N = No
T5 construct: Recombinant protein from a commercial source

Binder | binding result
B1 | no binding (tested: 1 nM)
B2 | no binding (tested: 1 nM)
B3 | no binding (tested: 1 nM)
B4 | no binding (tested: 1 nM)

molecular target: LILRA5 recombinant, full-length ectodomain (LILRA5 42-268) (human, UniProt A6NI73 42-268); assay: summary table (single point ELISA); N = No
Sequence (A6NI73 42-268): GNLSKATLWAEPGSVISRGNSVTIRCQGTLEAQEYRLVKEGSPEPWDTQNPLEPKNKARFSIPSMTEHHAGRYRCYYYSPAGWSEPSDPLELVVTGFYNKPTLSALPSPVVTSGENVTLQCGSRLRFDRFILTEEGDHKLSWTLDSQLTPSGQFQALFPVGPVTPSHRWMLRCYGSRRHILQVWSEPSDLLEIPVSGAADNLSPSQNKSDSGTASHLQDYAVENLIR

Binder | binding result
B1 | no binding (tested: 1 nM)
B2 | no binding (tested: 1 nM)
B3 | no binding (tested: 1 nM)
B4 | no binding (tested: 1 nM)

molecular target: T6, Rhesus monkey (Macaca mulatta) LILRB ectodomain fused to mIgG2a Fc (rhesus monkey (Macaca mulatta)); assay: summary table (ELISA); Rhesus & Cyno LILRB1/2 binding; Y = Yes
T6 construct: also called rhesus LILRB-mIgG2a; rhesus LILRB protein
T6 sequence (chain, as listed by the source limits assumed): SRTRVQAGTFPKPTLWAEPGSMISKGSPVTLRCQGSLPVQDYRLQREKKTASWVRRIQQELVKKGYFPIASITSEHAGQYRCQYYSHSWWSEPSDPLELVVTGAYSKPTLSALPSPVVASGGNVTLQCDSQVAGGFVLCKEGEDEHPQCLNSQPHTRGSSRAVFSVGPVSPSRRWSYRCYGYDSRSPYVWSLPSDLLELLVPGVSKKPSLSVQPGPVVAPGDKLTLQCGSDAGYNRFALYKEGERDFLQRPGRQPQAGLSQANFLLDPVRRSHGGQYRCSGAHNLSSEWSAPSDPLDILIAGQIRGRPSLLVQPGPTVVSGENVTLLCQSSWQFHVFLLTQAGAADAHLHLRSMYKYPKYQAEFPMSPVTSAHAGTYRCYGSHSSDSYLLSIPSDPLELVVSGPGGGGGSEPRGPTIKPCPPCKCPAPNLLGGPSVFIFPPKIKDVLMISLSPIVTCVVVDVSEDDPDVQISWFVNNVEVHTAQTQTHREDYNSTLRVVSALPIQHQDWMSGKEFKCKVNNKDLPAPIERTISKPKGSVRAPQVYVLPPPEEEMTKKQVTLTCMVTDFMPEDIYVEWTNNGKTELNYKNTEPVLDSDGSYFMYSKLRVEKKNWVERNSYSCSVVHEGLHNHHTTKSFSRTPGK

Binder | binding result
B1 | binds
B2 | binds
B3 | binds
B4 | binds

molecular target: T7, Cynomolgus monkey (Macaca fascicularis) LILRB ectodomain fused to mIgG2a (cynomolgus monkey (Macaca fascicularis)); assay: as above
T7 construct: also called cynomolgus LILRB protein

Binder | binding result
B1 | binds
B2 | binds
B3 | binds
B4 | binds
